Article PMC7049810, “Outer membrane lipoprotein NlpI scaffolds peptidoglycan hydrolases within multi‐enzyme complexes in Escherichia coli” (The EMBO Journal, 2020)
Where a chain is given by its changes, count along the chain named. In names and notes the source's numbering stands.

T1: PBP1A, purified (Escherichia coli, UniProt P02918 1-850, NT647 RED-NHS dye on amines (PBP1A was the labelled protein in all MST assays))
T1 construct: Bifunctional peptidoglycan synthase PBP1A of E. coli; also called fl-PBP1A (fluorescently labelled); source: purified as described previously in Born et al (2006)
T1 sequence (looked up): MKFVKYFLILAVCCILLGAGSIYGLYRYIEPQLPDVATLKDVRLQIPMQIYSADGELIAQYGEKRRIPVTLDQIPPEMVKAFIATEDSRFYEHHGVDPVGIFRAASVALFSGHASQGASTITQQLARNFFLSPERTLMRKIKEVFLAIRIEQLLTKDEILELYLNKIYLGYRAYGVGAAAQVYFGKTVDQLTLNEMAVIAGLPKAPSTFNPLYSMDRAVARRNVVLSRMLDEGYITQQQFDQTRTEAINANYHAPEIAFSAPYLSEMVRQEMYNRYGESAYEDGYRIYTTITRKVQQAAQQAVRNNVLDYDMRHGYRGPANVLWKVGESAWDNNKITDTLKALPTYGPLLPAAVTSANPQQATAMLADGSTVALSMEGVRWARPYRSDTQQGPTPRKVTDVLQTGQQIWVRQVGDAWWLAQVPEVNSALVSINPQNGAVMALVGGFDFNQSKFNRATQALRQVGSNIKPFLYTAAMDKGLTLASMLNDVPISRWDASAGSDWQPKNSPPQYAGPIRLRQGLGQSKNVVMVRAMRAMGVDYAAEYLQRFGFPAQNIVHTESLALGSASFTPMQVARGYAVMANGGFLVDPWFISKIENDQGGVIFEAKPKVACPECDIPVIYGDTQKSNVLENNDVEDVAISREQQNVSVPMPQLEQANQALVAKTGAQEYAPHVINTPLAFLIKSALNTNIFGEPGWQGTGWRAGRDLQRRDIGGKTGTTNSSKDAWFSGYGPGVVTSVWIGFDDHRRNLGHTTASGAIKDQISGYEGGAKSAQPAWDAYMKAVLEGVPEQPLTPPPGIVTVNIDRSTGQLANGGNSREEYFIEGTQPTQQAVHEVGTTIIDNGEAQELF

B1: PBP7, purified (enzyme, Escherichia coli, UniProt P0AFI5 26-310, looked up)
chain: KTAAATTASQPEIASGSAMIVDLNTNKVIYSNHPDLVRPIASISKLMTAMVVLDARLPLDEKLKVDISQTPEMKGVYSRVRLNSEISRKDMLLLALMSSENRAAASLAHHYPGGYKAFIKAMNAKAKSLGMNNTRFVEPTGLSVHNVSTARDLTKLLIASKQYPLIGQLSTTREDMATFSNPTYTLPFRNTNHLVYRDNWNIQLTKTGFTNAAGHCLVMRTVINNKPVALVVMDAFGKYTHFADASRLRTWIETGKVMPVPAAALSYKKQKAAQMAAAGQTAQND
modifications: where used as the labelled protein in MST: NT647 RED-NHS dye on amines
notes: PBP7 (DD-endopeptidase) of E. coli; source: E. coli BL21 (λDE3), purified (HisTrap HP, Superdex 200)
B2: PBP4, native, purified (enzyme, Escherichia coli, UniProt P24228 21-477, looked up)
chain: ANVDEYITQLPAGANLALMVQKVGASAPAIDYHSQQMALPASTQKVITALAALIQLGPDFRFTTTLETKGNVENGVLKGDLVARFGADPTLKRQDIRNMVATLKKSGVNQIDGNVLIDTSIFASHDKAPGWPWNDMTQCFSAPPAAAIVDRNCFSVSLYSAPKPGDMAFIRVASYYPVTMFSQVRTLPRGSAEAQYCELDVVPGDLNRFTLTGCLPQRSEPLPLAFAVQDGASYAGAILKDELKQAGITWSGTLLRQTQVNEPGTVVASKQSAPLHDLLKIMLKKSDNMIADTVFRMIGHARFNVPGTWRAGSDAVRQILRQQAGVDIGNTIIADGSGLSRHNLIAPATMMQVLQYIAQHDNELNFISMLPLAGYDGSLQYRAGLHQAGVDGKVSAKTGSLQGVYNLAGFITTASGQRMAFVQYLSGYAVEPADQRNRRIPLVRFESRLYKDIYQNN
modifications: where used as the labelled protein in MST: NT647 RED-NHS dye on amines
notes: PBP4 (DD-endopeptidase) of E. coli, 'native PBP4' purified after Kishida et al (2006); Untagged ('native'); source: E. coli BL21 (λDE3), purified (HiTrap Q, hydroxyapatite, Superdex 200)
B3: MepS(C68A), catalytically inactive MepS (enzyme, Escherichia coli, UniProt P0AFV4 27-188, looked up)
chain: CSANNTAKNMHPETRAVGSETSSLQASQDEFENLVRNVDVKSRIMDQYADWKGVRYRLGGSTKKGIDASGFVQRTFREQFGLELPRSTYEQQEMGKSVSRSNLRTGDLVLFRAGSTGRHVGIYIGNNQFVHASTSSGVIISSMNEPYWKKRYNEARRVLSRS
notes: Peptidoglycan endopeptidase MepS of E. coli with C68A; the results call it MepS; source: E. coli BL21 (λDE3), purified (HisTrap HP, Superdex 200)
B4: MepS (enzyme, Escherichia coli, UniProt P0AFV4 27-188, looked up)
chain: B3 chain with A68C
modifications: where used as fl-MepS in MST: NT647 RED-NHS dye on amines
notes: Peptidoglycan endopeptidase MepS of E. coli, from pET21b-MepS-His (Singh et al, 2012); Construct from Singh et al, 2012; The methods list only MepS(C68A) as an unlabelled MST ligand; wild-type MepS is the labelled protein; also called fl-MepS (fluorescently labelled); MepS-His; source: E. coli BL21 (λDE3), purified (HisTrap HP, Superdex 200)
B5: LpoA, purified (natural protein, Escherichia coli, UniProt P45464 27-678, looked up)
chain: CGTHTPDQSTAYMQGTAQADSAFYLQQMQQSSDDTRINWQLLAIRALVKEGKTGQAVELFNQLPQELNDAQRREKTLLAVEIKLAQKDFAGAQNLLAKITPADLEQNQQARYWQAKIDASQGRPSIDLLRALIAQEPLLGAKEKQQNIDATWQALSSMTQEQANTLVINADENILQGWLDLQRVWFDNRNDPDMMKAGIADWQKRYPNNPGAKMLPTQLVNVKAFKPASTNKIALLLPLNGQAAVFGRTIQQGFEAAKNIGTQPVAAQVAAAPAADVAEQPQPQTVDGVASPAQASVSDLTGEQPAAQPVPVSAPATSTAAVSAPANPSAELKIYDTSSQPLSQILSQVQQDGASIVVGPLLKNNVEELLKSNTPLNVLALNQPENIENRVNICYFALSPEDEARDAARHIRDQGKQAPLVLIPRSSLGDRVANAFAQEWQKLGGGTVLQQKFGSTSELRAGVNGGSGIALTGSPITLRATTDSGMTTNNPTLQTTPTDDQFTNNGGRVDAVYIVATPGEIAFIKPMIAMRNGSQSGATLYASSRSAQGTAGPDFRLEMEGLQYSEIPMLAGGNLPLMQQALSAVNNDYSLARMYAMGVDAWSLANHFSQMRQVQGFEINGNTGSLTANPDCVINRNLSWLQYQQGQVVPVS
modifications: where used as the labelled protein in MST: NT647 RED-Maleimide dye on cysteines
notes: called LpoA^sol in the TPase methods; also called LpoA^sol; fl-LpoA; source: purified as described previously in Jean et al (2014)

How the values were obtained:
Conditions in all cases: both partners purified
[1] = target: B5; assay: MST; titration: NT647-labelled protein against a two-fold serial dilution (16 steps) of unlabelled ligand; 25 mM HEPES/NaOH, 150 mM NaCl, 0.05% Triton X-100, pH 7.5; Monolith NT.115; apparent constants; for NlpI with itself: dimer to monomers
[2] = target: T2, NlpI, soluble version lacking its membrane anchor (Escherichia coli, UniProt P0AFB1 20-294, where used as fl-NlpI in MST: NT647 RED-NHS dye on amines); assay: as above
T2 construct: Outer membrane lipoprotein NlpI of E. coli, soluble version lacking its membrane anchor; Homodimer by AUC; also called fl-NlpI (fluorescently labelled); His-NlpI; source: E. coli BL21 (λDE3), purified (HisTrap HP, Superdex 200)
T2 sequence (P0AFB1 20-294): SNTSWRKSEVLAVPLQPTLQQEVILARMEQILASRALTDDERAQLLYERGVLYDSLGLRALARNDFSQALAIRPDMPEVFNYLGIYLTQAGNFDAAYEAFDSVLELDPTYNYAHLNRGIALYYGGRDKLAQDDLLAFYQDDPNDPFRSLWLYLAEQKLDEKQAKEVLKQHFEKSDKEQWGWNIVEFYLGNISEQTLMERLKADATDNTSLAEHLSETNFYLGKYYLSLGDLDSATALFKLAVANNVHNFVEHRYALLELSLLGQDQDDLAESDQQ

[3] = target: T1, PBP1A, purified; assay: as above
[4] = target: B2; assay: MST + pull-down; endopeptidases tested against each other, 'a combination of MST and Ni2+-NTA pull-down assays'; all combinations of MepM, MepS, PBP4, PBP7
[5] = target: T3, pre-formed NlpI-PBP4 complex (Escherichia coli, UniProt P0AFB1 20-294; P24228 21-477); assay: MST; fixed ligand concentration assay: labelled MepS, LpoA or PBP1A with fixed unlabelled NlpI, PBP4, PBP7 or pre-formed complexes (NlpI 3 μM with 30 μM PBP4 or PBP7 for fl-MepS and fl-LpoA; PBP4 0.5 μM with NlpI 1 μM for fl-PBP1A); FNorm, or raw fluorescence for LpoA
T3 construct: NlpI of E. coli, soluble version lacking its membrane anchor, as the chain of m1; PBP4 of E. coli, native, as the chain of m5; NlpI 3 μM with excess PBP4 30 μM for assays with labelled MepS or LpoA; PBP4 0.5 μM with NlpI 1 μM for assays with labelled PBP1A; also called PBP4‐NlpI complex; PBP4‐NlpI; source: pre-formed from purified NlpI and purified PBP4, on ice for 10 min
T3 sequence (P0AFB1 20-294, one chain of several): as the sequence (P0AFB1 20-294) above

Q: For B1, which Kd [1] is on record?
A: 217 nM

Q: And the EC50 [2]?
A: 422 nM

Q: And the Kd [3]?
A: 101 nM

Q: Does B1 bind [4]?
A: binds

Q: For B2, which Kd [1] is on record?
A: 315 nM

Q: What about the Kd [3] of the same binder?
A: 106 nM

Q: With B3 as the binder, how does the Kd [3] read?
A: 91 nM

Q: B4 was tested. Which Kd [2] did it give?
A: 145 nM

Q: Does B5 bind [5]?
A: binds
